# Measurements reported in patent publication US20220185853A1, “AMANTADINE BINDING PROTEIN” (UNIVERSITY OF WASHINGTON, priority 2019, published 2022).
# “Also recorded” adds a separate entry of the source.
# Tests used:
# ABP = assay: Circular dichroism temperature melt of ABP in the presence of amantadine; assay type: binding
# Protocol: (§1) A synthetic gene encoding ABP was obtained and the protein expressed in E. coli.The design was expressed at high levels in the soluble fraction and was found by SEC-MALS to be a trimer in the presence and absence of amantadine (FIG. 2a). Interactions with amantadine were probed using thermofluor dye binding assay (differential scanning fluorimetry). […] As the protein was heated to 95° C., the fluorescence signal decreased, corresponding to protein aggregation at higher temperatures. […] In contrast, 2L6HC3_13, which has the same backbone parameters but lacks the amantadine binding site, is thermally stable by thermofluor assay, only starting to denature at ˜80° C. (FIG. 2b).
# (§2) CD wavelength scans (260 to 195 nm) and temperature melts (25 to 95° C.) were measured using a JASCO™ J-1500 or an AVIV™ model 420 CD spectrometer. Temperature melts monitored […] at 222 nm and were carried out at a heating rate of 4° C/min. Protein samples were prepared at 0.25 mg/mL in phosphate buffered saline (PBS) pH 7.4 in a 0.1 cm cuvette.
# [1] = tested on: ABP (amantadine-binding protein); assay: Thermofluor dye binding assay (differential scanning fluorimetry), amantadine on ABP; conditions: 1 mM amantadine, 5 μM protein, SYPRO orange, 25° C.
# Protocol: as §1
# (§3) Thermofluor assays were performed in SAXS buffer using a CFX96 Touch™ Real-Time PCR machine (Bio-Rad). Thermal stability assays were performed using 45 μL of 5 μM protein (with or without 1 mM amantadine) and 5 μL of freshly prepared 200X SYPRO™ orange (Thermo-Fisher) solution in SAXS buffer. The temperature was ramped from 25 ° C. to 95 ° C. in 0.5 ° C. increments with intervals of 5 s. Fluorescence was read in the FRET scanning mode. The average of three replicates of buffer+SYPRO orange solution (no protein control) was subtracted from the average of three replicates for each sample.
# ABP_L6Q = assay: Thermofluor assay, amantadine on ABP_L6Q; assay type: binding; conditions: 1 mM amantadine, 5 μM protein, SYPRO orange, 25° C.
# Protocol: (§4) As the protein was heated to 95° C., the fluorescence signal decreased, corresponding to protein aggregation at higher temperatures.
# as §3
# 2L6HC3_13 = assay: Thermofluor assay, amantadine on 2L6HC3_13 (scaffold lacking the amantadine binding site); conditions: 1 mM amantadine
# Protocol: as §1, §3
# [2] = Thermofluor melting curve of the proteins without ligand; assay type: physicochemical; conditions: for initial fluorescence signal of the apo protein (thermofluor melting curve): 25° C., without amantadine
# Protocol: as §1, §4, §3
# [3] = SEC-MALS oligomeric state; assay type: physicochemical; conditions: in the presence and absence of amantadine
# Protocol: as §1
# [4] = Circular dichroism temperature melt of ABP; assay type: physicochemical; conditions: CD at 25, 75, 95° C., without amantadine
# Protocol: as §1, §2
# [5] = target: the molecule itself; assay: SEC-MALS; self-association of ABP subunits into a homo-trimer
molecule,measurement,setting,value
NC12CC3CC(CC(C3)C1)C2 [amantadine],loss in CD signal of ABP on heating to 95° C. in the presence of amantadine,ABP; 1 mM amantadine,not significantly altered
same,thermal stability of ABP by CD spectrum in the presence of amantadine,"ABP; 5 mM amantadine, 25, 75, 95° C.",not significantly affected
same,"initial fluorescence signal of ABP in the presence of amantadine, compared with apo-ABP",[1],lowered; also recorded: much lower
same,"initial fluorescence signal of ABP_L6Q in the presence of amantadine, compared with apo-ABP_L6Q",ABP_L6Q,lowered; also recorded: much lower
same,effect of amantadine on the melting curve of 2L6HC3_13,2L6HC3_13,no effect
"ABP: de novo designed homo-trimeric amantadine-binding protein, SEQ ID NO:1 (protein, homotrimer) DAQDKLKYLVKQLERALRELKKSLDELERSLEELEKNPSEDALVENNRLNVENNKIIVEVLRIILELAKASAKLA",initial fluorescence signal of the apo protein (thermofluor melting curve),[2],high
same,oligomeric state by SEC-MALS,[3],trimer
same,thermal stability of the all α-helical structure by CD spectrum,[4],fairly stable up to 75 °C
"ABP (amantadine-binding protein) (designed binder, The measurement row with m1 as both partners means self-association of ABP subunits) GSHMGDAQDKLKYLVKQLERALRELKKSLDELERSLEELEKNPSEDALVENNRLNVENNKIIVEVLRIILELAKASAKLA",binding result,[5],binds
2L6HC3_13: previously characterized design; same backbone parameters as ABP but lacks the amantadine binding site (protein) GTKYELRRALEELEKALRELKKSLDELERSLEELEKNPSEDALVENNRLNVENNKIIVEVLRIIAEVLKINAKSD,initial fluorescence signal of the apo protein (thermofluor melting curve),[2],very low
same,temperature at which the protein starts to denature (thermofluor),"[2]; thermofluor assay, 25 to 95° C.",~80 °C
